Measured values as given in US20180333502A1 (published 2018).

T1: human GITR on cells (activated human T cells; 3A9-hGITR cells) (human, UniProt Q9Y5U5 26-241)
T1 chain: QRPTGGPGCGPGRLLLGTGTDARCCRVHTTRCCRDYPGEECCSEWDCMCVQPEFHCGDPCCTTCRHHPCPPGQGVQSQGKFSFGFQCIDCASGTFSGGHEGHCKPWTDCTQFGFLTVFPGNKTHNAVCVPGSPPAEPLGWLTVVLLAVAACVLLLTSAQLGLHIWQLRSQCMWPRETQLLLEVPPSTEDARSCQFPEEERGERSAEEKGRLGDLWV


Target: T1, human GITR on cells (activated human T …)
Experiment: FACS binding to activated human CD4 T cells

Row | Binder | EC50 [nM]
1 | anti-GITR-IgG2-IgG1.1 (antibody) heavy: QVQLVESGGGVVQPGRSLRLSCAASGFTFSSYGMHWVRQAPGKGLEWVAVIWYEGSNKYYADSVKGRFTISRDNSKNTLYLQMNSLRAEDTAVYYCARGGSMVRGDYYYGMDVWGQGTTVTVSSASTKGPSVFPLAPCSRSTSESTAALGCLVKDYFPEPVTVSWNSGALTSGVHTFPAVLQSSGLYSLSSVVTVPSSNFGTQTYTCNVDHKPSNTKVDKTVERKCCVECPPCPAPPVAGPSVFLFPPKPKDTLMISRTPEVTCVVVDVSHEDPEVKFNWYVDGVEVHNAKTKPREEQYNSTYRVVSVLTVLHQDWLNGKEYKCKVSNKALPSSIEKTISKAKGQPREPQVYTLPPSREEMTKNQVSLTCLVKGFYPSDIAVEWESNGQPENNYKTTPPVLDSDGSFFLYSKLTVDKSRWQQGNVFSCSVMHEALHNHYTQKSLSLSPG light: not shown | 0.163
2 | anti-GITR-IgG2 (antibody) heavy: QVQLVESGGGVVQPGRSLRLSCAASGFTFSSYGMHWVRQAPGKGLEWVAVIWYEGSNKYYADSVKGRFTISRDNSKNTLYLQMNSLRAEDTAVYYCARGGSMVRGDYYYGMDVWGQGTTVTVSSASTKGPSVFPLAPCSRSTSESTAALGCLVKDYFPEPVTVSWNSGALTSGVHTFPAVLQSSGLYSLSSVVTVPSSNFGTQTYTCNVDHKPSNTKVDKTVERKCCVECPPCPAPPVAGPSVFLFPPKPKDTLMISRTPEVTCVVVDVSHEDPEVQFNWYVDGVEVHNAKTKPREEQFNSTFRVVSVLTVVHQDWLNGKEYKCKVSNKGLPAPIEKTISKTKGQPREPQVYTLPPSREEMTKNQVSLTCLVKGFYPSDIAVEWESNGQPENNYKTTPPMLDSDGSFFLYSKLTVDKSRWQQGNVFSCSVMHEALHNHYTQKSLSLSPGK light: not shown | 0.277
